From the supplement of paper PMC10065799, “High-throughput profiling of sequence recognition by tyrosine kinases and SH2 domains using bacterial peptide display” (eLife, 2023)

Assays:
Hck = Hck (UniProt P08631); test: phosphorylation enrichment, bacterial display (enrichment ratio); higher = better substrate or ligand; peptides without Tyr show the background
Jak2 = Jak2 (UniProt O60674); test: as above
Fes = Fes (UniProt P07332); test: as above
FGFR1 = FGFR1 (UniProt P11362); test: as above
Fer (mouse) = test: as above
EPHB2 = EPHB2 (UniProt P29323); test: as above
EPHB1 = EPHB1 (UniProt P54762); test: as above
MERTK = MERTK (UniProt Q12866); test: as above
AncSZ = test: as above
FGFR3 = FGFR3 (UniProt P22607); test: as above
c-Src = test: as above
c-Abl (mouse) = test: as above
Fyn = Fyn (UniProt P06241); test: as above
c-Src SH2 = test: SH2 binding enrichment of the phosphorylated peptide, bacterial display (enrichment ratio); higher = better substrate or ligand; peptides without Tyr show the background
SHP2-C SH2 = test: as above
Grb2 SH2 = Grb2 SH2 (UniProt P62993); test: as above
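For SH2 binding enrichment of the phosphorylated peptide, bacterial display in this document: peptide library displayed on the E. coli surface as eCPX fusions, selected cells deep-sequenced, score is each peptide's frequency after selection divided by its frequency in the input.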
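For phosphorylation enrichment, bacterial display in this document: 11-residue human phosphosite peptides and single-mutation variants displayed on the E. coli surface, counted by deep sequencing, each peptide's frequency after selection divided by its frequency in the unselected input library; frequency after pTyr selection over input frequency; kinase dosed for 20-30% of maximal phosphorylation in three min.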

Chain of FGFR3 (P22607 whole entry, looked up): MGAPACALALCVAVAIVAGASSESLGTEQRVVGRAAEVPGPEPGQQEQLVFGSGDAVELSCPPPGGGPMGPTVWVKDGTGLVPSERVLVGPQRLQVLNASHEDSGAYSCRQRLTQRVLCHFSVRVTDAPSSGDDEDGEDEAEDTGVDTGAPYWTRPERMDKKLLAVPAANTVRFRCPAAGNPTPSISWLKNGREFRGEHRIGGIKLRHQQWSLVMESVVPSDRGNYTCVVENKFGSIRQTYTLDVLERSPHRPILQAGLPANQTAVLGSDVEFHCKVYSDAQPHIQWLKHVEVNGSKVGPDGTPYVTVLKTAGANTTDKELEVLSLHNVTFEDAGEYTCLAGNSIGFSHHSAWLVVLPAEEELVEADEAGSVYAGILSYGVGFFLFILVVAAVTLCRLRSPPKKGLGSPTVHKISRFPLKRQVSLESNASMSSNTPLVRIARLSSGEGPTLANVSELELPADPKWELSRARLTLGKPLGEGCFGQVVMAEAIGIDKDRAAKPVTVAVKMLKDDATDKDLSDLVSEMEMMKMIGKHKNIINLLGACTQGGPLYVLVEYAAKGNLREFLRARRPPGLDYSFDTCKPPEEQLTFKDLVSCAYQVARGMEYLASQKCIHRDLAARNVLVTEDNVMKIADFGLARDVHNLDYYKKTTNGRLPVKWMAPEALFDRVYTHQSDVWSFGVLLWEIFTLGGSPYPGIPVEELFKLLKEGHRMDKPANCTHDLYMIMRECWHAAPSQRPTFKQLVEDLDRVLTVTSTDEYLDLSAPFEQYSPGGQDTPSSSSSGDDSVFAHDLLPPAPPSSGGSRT
Chain of Fyn (P06241 whole entry, looked up): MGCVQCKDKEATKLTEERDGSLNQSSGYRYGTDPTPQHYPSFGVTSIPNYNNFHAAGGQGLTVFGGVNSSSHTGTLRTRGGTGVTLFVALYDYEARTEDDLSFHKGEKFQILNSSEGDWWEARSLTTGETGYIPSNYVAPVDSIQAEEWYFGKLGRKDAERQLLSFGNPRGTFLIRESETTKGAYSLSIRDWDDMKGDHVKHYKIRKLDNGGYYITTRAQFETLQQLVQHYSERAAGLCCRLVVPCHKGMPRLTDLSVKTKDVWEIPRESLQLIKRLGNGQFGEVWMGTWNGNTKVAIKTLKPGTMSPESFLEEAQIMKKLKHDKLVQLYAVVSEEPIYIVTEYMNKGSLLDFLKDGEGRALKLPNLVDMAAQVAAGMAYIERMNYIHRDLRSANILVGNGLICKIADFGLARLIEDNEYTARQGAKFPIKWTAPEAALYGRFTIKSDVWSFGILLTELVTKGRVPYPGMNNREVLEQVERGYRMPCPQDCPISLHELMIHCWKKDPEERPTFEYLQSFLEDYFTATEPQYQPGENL
Chain of FGFR1 (P11362 whole entry, looked up): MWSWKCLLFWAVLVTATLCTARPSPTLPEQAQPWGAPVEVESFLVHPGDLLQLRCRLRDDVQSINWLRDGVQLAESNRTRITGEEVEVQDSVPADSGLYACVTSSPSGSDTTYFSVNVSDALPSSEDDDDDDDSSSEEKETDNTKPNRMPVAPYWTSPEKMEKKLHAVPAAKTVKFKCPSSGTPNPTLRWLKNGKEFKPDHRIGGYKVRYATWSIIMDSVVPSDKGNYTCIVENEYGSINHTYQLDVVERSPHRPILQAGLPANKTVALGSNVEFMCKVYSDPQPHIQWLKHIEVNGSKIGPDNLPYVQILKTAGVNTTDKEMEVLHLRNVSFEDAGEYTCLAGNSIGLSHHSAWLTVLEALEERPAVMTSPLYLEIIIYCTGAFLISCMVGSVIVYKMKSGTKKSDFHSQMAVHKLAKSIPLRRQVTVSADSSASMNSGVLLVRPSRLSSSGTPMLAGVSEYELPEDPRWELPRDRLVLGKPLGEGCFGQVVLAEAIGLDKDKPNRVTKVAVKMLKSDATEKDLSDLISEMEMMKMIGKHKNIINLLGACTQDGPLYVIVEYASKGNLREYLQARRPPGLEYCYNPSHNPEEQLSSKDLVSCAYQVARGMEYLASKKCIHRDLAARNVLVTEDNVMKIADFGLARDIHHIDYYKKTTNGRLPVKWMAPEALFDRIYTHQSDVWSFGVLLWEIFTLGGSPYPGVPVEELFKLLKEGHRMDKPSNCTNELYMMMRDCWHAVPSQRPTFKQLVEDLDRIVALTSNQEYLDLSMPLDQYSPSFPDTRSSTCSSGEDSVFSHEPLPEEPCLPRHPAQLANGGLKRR
Chain of Grb2 SH2 (P62993 whole entry, looked up, the tested form may be a part): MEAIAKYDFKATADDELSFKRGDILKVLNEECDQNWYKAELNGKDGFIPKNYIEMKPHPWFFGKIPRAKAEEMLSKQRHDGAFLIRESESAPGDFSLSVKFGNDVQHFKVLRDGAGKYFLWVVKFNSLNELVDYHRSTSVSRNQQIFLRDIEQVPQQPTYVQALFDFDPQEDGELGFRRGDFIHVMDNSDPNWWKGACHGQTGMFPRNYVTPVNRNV
Chain of MERTK (Q12866 whole entry, looked up): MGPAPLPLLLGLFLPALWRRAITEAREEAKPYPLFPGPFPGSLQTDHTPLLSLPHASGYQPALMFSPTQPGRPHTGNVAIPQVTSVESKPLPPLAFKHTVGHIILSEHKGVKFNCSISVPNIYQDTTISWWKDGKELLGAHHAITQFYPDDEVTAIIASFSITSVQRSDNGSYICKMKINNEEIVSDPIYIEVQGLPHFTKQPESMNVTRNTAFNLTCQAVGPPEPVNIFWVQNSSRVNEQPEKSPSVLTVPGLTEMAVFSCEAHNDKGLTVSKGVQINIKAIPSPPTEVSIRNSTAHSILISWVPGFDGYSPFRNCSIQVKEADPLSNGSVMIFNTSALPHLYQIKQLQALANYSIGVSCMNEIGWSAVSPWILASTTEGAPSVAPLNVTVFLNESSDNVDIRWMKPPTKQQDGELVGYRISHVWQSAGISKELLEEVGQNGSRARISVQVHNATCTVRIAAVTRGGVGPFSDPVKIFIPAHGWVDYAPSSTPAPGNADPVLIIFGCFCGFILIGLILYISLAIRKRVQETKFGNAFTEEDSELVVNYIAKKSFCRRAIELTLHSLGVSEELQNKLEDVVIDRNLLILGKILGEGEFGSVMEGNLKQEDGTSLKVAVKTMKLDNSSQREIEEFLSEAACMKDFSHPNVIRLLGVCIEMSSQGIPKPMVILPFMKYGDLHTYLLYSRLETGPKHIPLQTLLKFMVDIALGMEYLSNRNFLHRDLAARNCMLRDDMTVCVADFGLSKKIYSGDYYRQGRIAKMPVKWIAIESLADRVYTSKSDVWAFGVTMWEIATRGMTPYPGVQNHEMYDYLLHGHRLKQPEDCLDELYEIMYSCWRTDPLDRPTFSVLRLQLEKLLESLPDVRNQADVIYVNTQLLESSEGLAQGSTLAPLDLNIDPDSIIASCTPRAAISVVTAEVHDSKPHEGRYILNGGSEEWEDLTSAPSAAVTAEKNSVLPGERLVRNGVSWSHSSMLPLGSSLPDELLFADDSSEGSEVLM
Chain of Fes (P07332 whole entry, looked up): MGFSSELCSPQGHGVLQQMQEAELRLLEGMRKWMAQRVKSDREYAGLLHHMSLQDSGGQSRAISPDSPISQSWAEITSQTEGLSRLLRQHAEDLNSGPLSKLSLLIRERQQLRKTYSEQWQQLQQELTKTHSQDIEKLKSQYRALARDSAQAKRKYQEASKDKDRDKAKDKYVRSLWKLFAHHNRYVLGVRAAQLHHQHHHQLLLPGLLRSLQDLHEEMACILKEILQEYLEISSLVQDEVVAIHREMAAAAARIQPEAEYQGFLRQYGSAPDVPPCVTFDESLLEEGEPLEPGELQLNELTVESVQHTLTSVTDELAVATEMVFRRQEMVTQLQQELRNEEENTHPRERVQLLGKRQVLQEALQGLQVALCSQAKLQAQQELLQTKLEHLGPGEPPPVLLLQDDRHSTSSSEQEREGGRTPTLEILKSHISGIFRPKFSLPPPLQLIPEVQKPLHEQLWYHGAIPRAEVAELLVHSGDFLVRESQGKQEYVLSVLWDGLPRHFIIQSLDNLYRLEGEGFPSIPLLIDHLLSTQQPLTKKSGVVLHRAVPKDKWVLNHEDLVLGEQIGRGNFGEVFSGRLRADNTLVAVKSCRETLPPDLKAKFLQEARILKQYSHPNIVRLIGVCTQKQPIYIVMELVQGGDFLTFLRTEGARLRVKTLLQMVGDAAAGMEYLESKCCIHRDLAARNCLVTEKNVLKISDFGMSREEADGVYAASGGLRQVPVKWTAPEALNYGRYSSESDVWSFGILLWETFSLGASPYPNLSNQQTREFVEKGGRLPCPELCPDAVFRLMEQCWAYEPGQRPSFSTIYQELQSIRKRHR
Chain of Hck (P08631 whole entry, looked up): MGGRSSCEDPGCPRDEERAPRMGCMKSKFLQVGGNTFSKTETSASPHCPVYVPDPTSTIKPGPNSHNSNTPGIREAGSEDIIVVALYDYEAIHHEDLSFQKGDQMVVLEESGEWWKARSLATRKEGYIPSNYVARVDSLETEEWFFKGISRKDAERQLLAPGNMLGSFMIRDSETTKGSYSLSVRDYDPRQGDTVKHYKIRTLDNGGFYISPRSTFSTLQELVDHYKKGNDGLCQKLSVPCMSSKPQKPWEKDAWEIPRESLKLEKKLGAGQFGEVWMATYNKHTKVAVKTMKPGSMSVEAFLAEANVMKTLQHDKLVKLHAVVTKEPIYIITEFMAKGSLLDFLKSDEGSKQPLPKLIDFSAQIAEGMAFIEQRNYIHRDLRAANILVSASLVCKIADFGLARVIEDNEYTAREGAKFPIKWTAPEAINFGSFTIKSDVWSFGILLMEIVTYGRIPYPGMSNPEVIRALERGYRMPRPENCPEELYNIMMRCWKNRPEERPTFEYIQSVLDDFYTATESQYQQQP

Row | Sequence | phosphorylation enrichment (Hck) | phosphorylation enrichment (Jak2) | phosphorylation enrichment (Fes) | phosphorylation enrichment (FGFR1) | phosphorylation enrichment (Fer (mouse)) | phosphorylation enrichment (EPHB2) | phosphorylation enrichment (EPHB1) | phosphorylation enrichment (MERTK) | phosphorylation enrichment (AncSZ) | phosphorylation enrichment (FGFR3) | phosphorylation enrichment (c-Src) | phosphorylation enrichment (c-Abl (mouse)) | phosphorylation enrichment (Fyn) | SH2 binding enrichment (c-Src SH2) | SH2 binding enrichment (SHP2-C SH2) | SH2 binding enrichment (Grb2 SH2)
1 | AAPAAHDAADT [GAMT_Y27_Y27H] | 0.749 | 0.531 | 0.665 | 0.403 | 0.418 | 0.602 | 0.387 | 0.45 | 0.618 | 0.452 | 0.32 | 0.48 | 0.45 | 0.478 | 0.8 | 1
2 | AARVSYWLASG [DCHS1_Y1582_R1583W] | 0.555 | 0.825 | 1.17 | 0.622 | 0.634 | 0.732 | 0.613 | 0.443 | 1.18 | 0.781 | 0.364 | 0.617 | 0.573 | 0.527 | 0.733 | 1.17
3 | AAVDTVCRHNF [HLA-DRB1_Y107_Y107V_YF] | 0.429 | 1.15 | 1.29 | 0.499 | 0.54 | 0.577 | 0.521 | 0.488 | 0.765 | 0.533 | 0.491 | 0.937 | 0.398 | 0.529 | 0.479 | 0.888
4 | AAYNRYDQERF [CDC73_Y293] | 0.447 | 0.646 | 0.752 | 0.521 | 0.433 | 0.463 | 0.401 | 0.518 | 0.681 | 0.538 | 0.468 | 0.512 | 0.457 | 0.497 | 0.585 | 0.737
5 | ACRSLYGGFVE [MVD_Y164] | 7.94 | 0.698 | 1.04 | 0.625 | 0.605 | 0.642 | 0.568 | 0.621 | 1.11 | 0.727 | 7.11 | 0.511 | 11.2 | 0.574 | 0.808 | 0.751
6 | ADLLVYIKALN [HPRT1_Y81_D80V] | 0.657 | 1.23 | 1.48 | 0.512 | 0.511 | 0.628 | 0.644 | 0.349 | 1.11 | 0.935 | 0.471 | 0.939 | 0.455 | 0.511 | 0.681 | 0.949
7 | ADNSAYLMGLN [MYH7_Y386_K383N] | 0.603 | 1.11 | 0.932 | 0.512 | 0.497 | 0.566 | 0.629 | 0.473 | 0.865 | 0.61 | 0.587 | 0.738 | 0.514 | 0.556 | 0.723 | 0.993
8 | ADRNHYRRYPR [YBX1_Y145] | 0.55 | 0.585 | 0.644 | 0.527 | 0.46 | 0.425 | 0.424 | 0.48 | 0.613 | 0.465 | 0.515 | 0.717 | 0.544 | 0.403 | 0.299 | 0.748
9 | AEEEIYGEFEA [Src_opt_1995] | 1.12 | 1.29 | 1.49 | 0.694 | 0.923 | 0.75 | 0.808 | 0.58 | 1.51 | 1 | 1.14 | 0.97 | 1.26 | 0.483 | 0.69 | 0.774
10 | AEPHTYEEPGR [EPHA8_Y616] | 0.485 | 0.749 | 0.824 | 0.506 | 0.433 | 0.476 | 0.511 | 0.501 | 1.08 | 0.581 | 0.439 | 0.675 | 0.489 | 6.34 | 0.862 | 0.882
11 | AEPTGYSAELS [EZR_Y499] | 0.616 | 1.08 | 1.01 | 0.528 | 0.535 | 0.583 | 0.513 | 0.485 | 1.03 | 0.636 | 0.488 | 0.799 | 0.524 | 0.457 | 0.525 | 0.721
12 | AERKLYRNVML [ZNF569_Y33_Q29E] | 0.319 | 0.653 | 0.519 | 0.367 | 0.359 | 0.408 | 0.365 | 0.383 | 0.45 | 0.407 | 0.312 | 0.453 | 0.337 | 1.24 | 1.65 | 1.76
13 | AESPEYVHMFT [FAM111A_Y511_YF] | 0.629 | 1.11 | 1.12 | 1.69 | 0.542 | 0.598 | 0.579 | 0.407 | 1.32 | 1.58 | 0.443 | 0.703 | 0.502 | 0.528 | 0.564 | 0.878
14 | AEVDTYCRHNY [HLA-DRB1_Y107_A103E] | 0.505 | 0.682 | 0.98 | 0.461 | 0.442 | 0.559 | 0.428 | 0.391 | 0.771 | 0.559 | 0.537 | 0.554 | 0.394 | 0.699 | 0.838 | 0.939
15 | AFAEVYEGQVS [ALK_Y1131_G1128A] | 0.796 | 1.09 | 0.974 | 0.414 | 0.518 | 0.504 | 0.559 | 0.484 | 1.07 | 0.695 | 1.21 | 0.868 | 0.563 | 0.506 | 0.769 | 0.888
16 | AFPVSYSSSGA [RET_Y687] | 0.303 | 0.52 | 0.541 | 0.407 | 0.392 | 0.314 | 0.455 | 0.454 | 0.511 | 0.406 | 0.477 | 0.53 | 0.344 | 0.506 | 0.65 | 0.767
17 | AFSLKYEQQTQ [SYTL4_Y366] | 0.535 | 0.982 | 1.21 | 0.53 | 0.719 | 0.624 | 0.694 | 0.491 | 1.03 | 0.841 | 0.364 | 0.564 | 0.437 | 0.587 | 0.67 | 1.09

Row | Sequence | phosphorylation enrichment (Hck) | phosphorylation enrichment (Jak2) | phosphorylation enrichment (Fes) | phosphorylation enrichment (FGFR1) | phosphorylation enrichment (Fer (mouse)) | phosphorylation enrichment (EPHB2) | phosphorylation enrichment (EPHB1) | phosphorylation enrichment (MERTK) | phosphorylation enrichment (AncSZ) | phosphorylation enrichment (FGFR3) | phosphorylation enrichment (c-Src) | phosphorylation enrichment (c-Abl (mouse)) | phosphorylation enrichment (Fyn) | SH2 binding enrichment (c-Src SH2) | SH2 binding enrichment (SHP2-C SH2) | SH2 binding enrichment (Grb2 SH2)
18 | AGIENYTSRFG [NKD2_Y256] | 0.329 | 0.465 | 0.719 | 0.434 | 0.383 | 0.386 | 0.817 | 0.418 | 0.569 | 0.529 | 0.426 | 0.585 | 0.421 | 0.485 | 0.625 | 0.767
19 | AGLVQYFMEHH [PTPN11_Y80_E76G_YF] | 0.565 | 0.962 | 1.12 | 0.538 | 0.474 | 0.592 | 0.655 | 0.456 | 0.955 | 0.782 | 0.452 | 0.741 | 0.513 | 0.599 | 0.845 | 0.844
20 | AGQEGYDRLRP [RAC1_Y64_D63G] | 0.527 | 0.484 | 0.712 | 0.562 | 0.347 | 0.596 | 0.43 | 0.36 | 0.547 | 0.642 | 0.378 | 0.654 | 0.34 | 0.918 | 0.501 | 0.72
21 | AGTILSHAHLD [ASS1_Y291_Y291S] | 0.412 | 0.707 | 0.847 | 0.364 | 0.374 | 0.459 | 0.788 | 0.289 | 0.75 | 0.546 | 0.384 | 0.622 | 0.367 | 0.374 | 0.55 | 0.696
22 | AHAGEHGAEAL [HBA1_Y25_Y25H] | 0.479 | 0.491 | 0.703 | 0.476 | 0.419 | 0.439 | 0.378 | 0.382 | 0.521 | 0.451 | 0.461 | 0.454 | 0.354 | 0.484 | 0.763 | 0.782
23 | AHAGEYGAGAL [HBA1_Y25_E28G] | 0.49 | 0.608 | 0.539 | 0.365 | 0.384 | 0.434 | 0.376 | 0.395 | 0.575 | 0.485 | 0.489 | 0.616 | 0.405 | 0.403 | 0.589 | 0.776
24 | AHAGEYGVEAL [HBA1_Y25_A27V] | 0.547 | 0.793 | 0.9 | 0.499 | 0.448 | 0.631 | 0.492 | 0.422 | 0.83 | 0.678 | 0.402 | 0.595 | 0.525 | 0.493 | 0.79 | 0.872
25 | AHAGKYGAEAL [HBA1_Y25_E24K] | 0.368 | 0.544 | 0.796 | 0.4 | 0.342 | 0.338 | 0.453 | 0.347 | 0.677 | 0.42 | 0.387 | 0.451 | 0.423 | 0.452 | 0.608 | 0.818
26 | AHARMYGVLPW [PLP1_Y207_D203H] | 3.4 | 0.478 | 0.617 | 0.503 | 0.402 | 0.462 | 0.519 | 0.507 | 0.496 | 0.421 | 2.35 | 0.58 | 2.35 | 0.49 | 1.19 | 1.05
27 | AHPGEYGAEAL [HBA1_Y25_A22P] | 0.486 | 0.563 | 0.768 | 0.453 | 0.425 | 0.51 | 0.516 | 0.443 | 0.801 | 0.559 | 0.408 | 0.634 | 0.488 | 0.508 | 0.707 | 0.728
28 | AHPIIYTIIEA [PYKtide_no-pT_2014] | 2.74 | 0.838 | 1.21 | 1.57 | 3.1 | 1.3 | 5.42 | 7.03 | 0.892 | 1.44 | 3.47 | 1.85 | 3.29 | 1.5 | 1.66 | 1.21
29 | AKKKMYSHKTK [AGXT_Y231_R233H] | 0.666 | 3.12 | 1.63 | 0.621 | 1.12 | 0.823 | 1.01 | 0.689 | 0.961 | 2.37 | 0.727 | 1.62 | 0.609 | 1.34 | 1.42 | 1.44
30 | AKKMKYFEGVS [PRKDC_Y682_I680M] | 0.351 | 0.499 | 0.559 | 0.395 | 0.311 | 0.3 | 0.393 | 0.318 | 0.493 | 0.434 | 0.394 | 0.404 | 0.419 | 0.496 | 0.539 | 0.725
31 | AKVKPYINGTS [IBTK_Y1064_V1065I] | 0.359 | 0.369 | 0.503 | 0.297 | 0.274 | 0.274 | 0.295 | 0.358 | 0.471 | 0.408 | 0.294 | 0.404 | 0.343 | 0.737 | 1.05 | 0.999
32 | AKYLGYPPPEI [KDR_Y357] | 0.512 | 0.594 | 0.849 | 0.395 | 0.398 | 0.535 | 0.374 | 0.378 | 0.543 | 0.556 | 0.385 | 0.538 | 0.321 | 0.43 | 0.749 | 0.831
33 | NHFKIYNLFAE [PTEN_Y68_C71Y_YF] | 1.53 | 0.612 | 1.33 | 0.933 | 0.946 | 1.14 | 0.931 | 0.329 | 1.14 | 1.36 | 1.64 | 0.573 | 2.73 |  |  | 
